Target: depolymerase Dpo71 (Acinetobacter baumannii phage vB_AbaM-IME-AB2)
Experiment: SEC; Superose 6 Increase column on AKTA FPLC, equilibrated with PBS; gel filtration markers of 150 and 200 kDa; purified Dpo71 alone

- stoichiometry N: 3
Substance: depolymerase Dpo71 (enzyme)

— PMC8990738
